Assay results reported in US20190233493A1 (Sanofi, published 2019).
*1 amine or outer side, *2 acyl side, *3 side chain or, on linkers, in order; H or OH if unused. Side-chain parts run from the residue outwards. [ ]: non-standard residue; d: D form. The star is where a group is joined. PEG12 = NCCOCCOCCOCCOCCOCCOCCOCCOCCOCCOCCOCCOCCC(=O)O; γGlu = O=C(O)[C@H](CCC(=O)[*:2])N[*:1]; Stearoyl = CCCCCCCCCCCCCCCCCC(=O)*; Palmitoyl = CCCCCCCCCCCCCCCC(=O)*; Nle = CCCC[C@H](N)C(=O)O; Aib = CC(C)(N)C(=O)O

T1: RXFP1 receptor (UniProt Q9HBX9 1-757, limits assumed)
T1 sequence (looked up): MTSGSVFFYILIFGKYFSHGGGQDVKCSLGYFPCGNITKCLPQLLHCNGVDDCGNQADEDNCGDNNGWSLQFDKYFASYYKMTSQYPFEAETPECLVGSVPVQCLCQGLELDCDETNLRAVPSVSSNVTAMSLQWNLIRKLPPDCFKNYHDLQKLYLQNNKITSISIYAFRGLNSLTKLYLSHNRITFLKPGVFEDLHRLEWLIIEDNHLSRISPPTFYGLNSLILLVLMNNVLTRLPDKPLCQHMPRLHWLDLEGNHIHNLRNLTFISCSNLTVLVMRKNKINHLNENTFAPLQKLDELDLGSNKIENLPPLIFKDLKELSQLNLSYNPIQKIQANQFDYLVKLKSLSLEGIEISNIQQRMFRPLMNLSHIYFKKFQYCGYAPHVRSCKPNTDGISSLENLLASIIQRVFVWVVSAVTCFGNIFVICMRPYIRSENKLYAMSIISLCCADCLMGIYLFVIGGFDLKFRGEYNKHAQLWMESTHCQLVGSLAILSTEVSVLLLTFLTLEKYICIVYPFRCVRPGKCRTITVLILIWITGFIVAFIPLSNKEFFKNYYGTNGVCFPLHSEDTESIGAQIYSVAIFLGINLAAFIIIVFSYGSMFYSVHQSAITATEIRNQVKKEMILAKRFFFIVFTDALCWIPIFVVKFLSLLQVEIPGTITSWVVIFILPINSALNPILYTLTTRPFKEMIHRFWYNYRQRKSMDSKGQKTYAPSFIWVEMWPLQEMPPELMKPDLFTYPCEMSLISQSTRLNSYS


Target: T1, RXFP1 receptor
Experiment: cell-based or functional assay

Binder | EC50 (nM), OVCAR 5 cells (cAMP) | EMax, OVCAR 5 cells (cAMP)
Ac-LEGREKVRAQI[Aib][Aib]EG[Nle]STWS[Aib]RKK(Ac)[PEG12]K(Stearoyl)-NH2 (SMILES CCCCCCCCCCCCCCCCCC(=O)NCCCC[C@H](NC(=O)CCOCCOCCOCCOCCOCCOCCOCCOCCOCCOCCOCCOCCNC(=O)[C@H](CCCCNC(C)=O)NC(=O)[C@H](CCCCN)NC(=O)[C@H](CCCNC(=N)N)NC(=O)C(C)(C)NC(=O)[C@H](CO)NC(=O)[C@H](Cc1c[nH]c2ccccc12)NC(=O)[C@@H](NC(=O)[C@H](CO)NC(=O)[C@H](CCCC)NC(=O)CNC(=O)[C@H](CCC(=O)O)NC(=O)C(C)(C)NC(=O)C(C)(C)NC(=O)[C@@H](NC(=O)[C@H](CCC(N)=O)NC(=O)[C@H](C)NC(=O)[C@H](CCCNC(=N)N)NC(=O)[C@@H](NC(=O)[C@H](CCCCN)NC(=O)[C@H](CCC(=O)O)NC(=O)[C@H](CCCNC(=N)N)NC(=O)CNC(=O)[C@H](CCC(=O)O)NC(=O)[C@H](CC(C)C)NC(C)=O)C(C)C)[C@@H](C)CC)[C@@H](C)O)C(N)=O) [peptide of SEQ ID NO: 21] | 38.6 nM | 88%
Ac-LEGREKVRAQI[Aib][Aib]EG[Nle]STWS[Aib]RKK([γGlu-Stearoyl])-NH2 (SMILES CCCCCCCCCCCCCCCCCC(=O)N[C@@H](CCC(=O)NCCCC[C@H](NC(=O)[C@H](CCCCN)NC(=O)[C@H](CCCNC(=N)N)NC(=O)C(C)(C)NC(=O)[C@H](CO)NC(=O)[C@H](Cc1c[nH]c2ccccc12)NC(=O)[C@@H](NC(=O)[C@H](CO)NC(=O)[C@H](CCCC)NC(=O)CNC(=O)[C@H](CCC(=O)O)NC(=O)C(C)(C)NC(=O)C(C)(C)NC(=O)[C@@H](NC(=O)[C@H](CCC(N)=O)NC(=O)[C@H](C)NC(=O)[C@H](CCCNC(=N)N)NC(=O)[C@@H](NC(=O)[C@H](CCCCN)NC(=O)[C@H](CCC(=O)O)NC(=O)[C@H](CCCNC(=N)N)NC(=O)CNC(=O)[C@H](CCC(=O)O)NC(=O)[C@H](CC(C)C)NC(C)=O)C(C)C)[C@@H](C)CC)[C@@H](C)O)C(N)=O)C(=O)O) [peptide of SEQ ID NO: 3] | 28.5 nM | 93%
Ac-LEGREKVRAK(Ac)I[Aib][Aib]EGMSTWS[Aib]RK[PEG12]K([γGlu-γGlu-γGlu-Palmitoyl])-NH2 (SMILES CCCCCCCCCCCCCCCC(=O)N[C@@H](CCC(=O)N[C@@H](CCC(=O)N[C@@H](CCC(=O)NCCCC[C@H](NC(=O)CCOCCOCCOCCOCCOCCOCCOCCOCCOCCOCCOCCOCCNC(=O)[C@H](CCCCN)NC(=O)[C@H](CCCNC(=N)N)NC(=O)C(C)(C)NC(=O)[C@H](CO)NC(=O)[C@H](Cc1c[nH]c2ccccc12)NC(=O)[C@@H](NC(=O)[C@H](CO)NC(=O)[C@H](CCSC)NC(=O)CNC(=O)[C@H](CCC(=O)O)NC(=O)C(C)(C)NC(=O)C(C)(C)NC(=O)[C@@H](NC(=O)[C@H](CCCCNC(C)=O)NC(=O)[C@H](C)NC(=O)[C@H](CCCNC(=N)N)NC(=O)[C@@H](NC(=O)[C@H](CCCCN)NC(=O)[C@H](CCC(=O)O)NC(=O)[C@H](CCCNC(=N)N)NC(=O)CNC(=O)[C@H](CCC(=O)O)NC(=O)[C@H](CC(C)C)NC(C)=O)C(C)C)[C@@H](C)CC)[C@@H](C)O)C(N)=O)C(=O)O)C(=O)O)C(=O)O) [peptide of SEQ ID NO: 25] | 1.21 nM | 95%
Ac-LEGREKVRAQI[Aib][Aib]EG[Nle]STWS[Aib]RKK[PEG12]K([γGlu-Stearoyl])-NH2 (SMILES CCCCCCCCCCCCCCCCCC(=O)N[C@@H](CCC(=O)NCCCC[C@H](NC(=O)CCOCCOCCOCCOCCOCCOCCOCCOCCOCCOCCOCCOCCNC(=O)[C@H](CCCCN)NC(=O)[C@H](CCCCN)NC(=O)[C@H](CCCNC(=N)N)NC(=O)C(C)(C)NC(=O)[C@H](CO)NC(=O)[C@H](Cc1c[nH]c2ccccc12)NC(=O)[C@@H](NC(=O)[C@H](CO)NC(=O)[C@H](CCCC)NC(=O)CNC(=O)[C@H](CCC(=O)O)NC(=O)C(C)(C)NC(=O)C(C)(C)NC(=O)[C@@H](NC(=O)[C@H](CCC(N)=O)NC(=O)[C@H](C)NC(=O)[C@H](CCCNC(=N)N)NC(=O)[C@@H](NC(=O)[C@H](CCCCN)NC(=O)[C@H](CCC(=O)O)NC(=O)[C@H](CCCNC(=N)N)NC(=O)CNC(=O)[C@H](CCC(=O)O)NC(=O)[C@H](CC(C)C)NC(C)=O)C(C)C)[C@@H](C)CC)[C@@H](C)O)C(N)=O)C(=O)O) [peptide of SEQ ID NO: 22] | 21.4 nM | 104%

The next lines start with the values.

EC50 (nM), OVCAR 5 cells (cAMP) | EMax, OVCAR 5 cells (cAMP) | Binder
3.2 nM | 74% | Ac-LEGREKVRAQI[Aib][Aib]EG[Nle]STWS[Aib]RK[PEG12]K([γGlu-γGlu-γGlu-Palmitoyl])-NH2 (SMILES CCCCCCCCCCCCCCCC(=O)N[C@@H](CCC(=O)N[C@@H](CCC(=O)N[C@@H](CCC(=O)NCCCC[C@H](NC(=O)CCOCCOCCOCCOCCOCCOCCOCCOCCOCCOCCOCCOCCNC(=O)[C@H](CCCCN)NC(=O)[C@H](CCCNC(=N)N)NC(=O)C(C)(C)NC(=O)[C@H](CO)NC(=O)[C@H](Cc1c[nH]c2ccccc12)NC(=O)[C@@H](NC(=O)[C@H](CO)NC(=O)[C@H](CCCC)NC(=O)CNC(=O)[C@H](CCC(=O)O)NC(=O)C(C)(C)NC(=O)C(C)(C)NC(=O)[C@@H](NC(=O)[C@H](CCC(N)=O)NC(=O)[C@H](C)NC(=O)[C@H](CCCNC(=N)N)NC(=O)[C@@H](NC(=O)[C@H](CCCCN)NC(=O)[C@H](CCC(=O)O)NC(=O)[C@H](CCCNC(=N)N)NC(=O)CNC(=O)[C@H](CCC(=O)O)NC(=O)[C@H](CC(C)C)NC(C)=O)C(C)C)[C@@H](C)CC)[C@@H](C)O)C(N)=O)C(=O)O)C(=O)O)C(=O)O) [peptide of SEQ ID NO: 24]
3.62 nM | 89% | Ac-LEGREKVRAQI[Aib][Aib]EGMSTWS[Aib]RK[PEG12]K([γGlu-γGlu-γGlu-Palmitoyl])-NH2 (SMILES CCCCCCCCCCCCCCCC(=O)N[C@@H](CCC(=O)N[C@@H](CCC(=O)N[C@@H](CCC(=O)NCCCC[C@H](NC(=O)CCOCCOCCOCCOCCOCCOCCOCCOCCOCCOCCOCCOCCNC(=O)[C@H](CCCCN)NC(=O)[C@H](CCCNC(=N)N)NC(=O)C(C)(C)NC(=O)[C@H](CO)NC(=O)[C@H](Cc1c[nH]c2ccccc12)NC(=O)[C@@H](NC(=O)[C@H](CO)NC(=O)[C@H](CCSC)NC(=O)CNC(=O)[C@H](CCC(=O)O)NC(=O)C(C)(C)NC(=O)C(C)(C)NC(=O)[C@@H](NC(=O)[C@H](CCC(N)=O)NC(=O)[C@H](C)NC(=O)[C@H](CCCNC(=N)N)NC(=O)[C@@H](NC(=O)[C@H](CCCCN)NC(=O)[C@H](CCC(=O)O)NC(=O)[C@H](CCCNC(=N)N)NC(=O)CNC(=O)[C@H](CCC(=O)O)NC(=O)[C@H](CC(C)C)NC(C)=O)C(C)C)[C@@H](C)CC)[C@@H](C)O)C(N)=O)C(=O)O)C(=O)O)C(=O)O) [peptide of SEQ ID NO: 23]
